What was measured:
[1] = molecular target: T1, Soluble human FGFR1c/KLB receptor complex (FGFR1c ectodomain-Fc with soluble KLB) (human, UniProt P11362 22-376; Q86Z14 1-996); experiment: AlphaScreen or HTRF; cell-free competition: biotinylated FGF21 on streptavidin donor beads, FGFR1c-Fc or FGFR4-Fc ectodomain on Protein A acceptor beads, human soluble KLB added to give the signal; 5 μg/ml heparin, 0.1% BSA; increasing doses of unlabelled protein or peptide displace biotinylated FGF21; settings: both partners purified
T1 construct: human FGFR1c ectodomain fused to Fc, coupled to Protein A acceptor beads; human beta-Klotho (KLB) protein, called human soluble KLB; also called FGFR1/KLB complex; soluble FGFR1/KLB receptor complex; source: bought: R&D Systems (both chains)
T1 sequence (looked up) 1: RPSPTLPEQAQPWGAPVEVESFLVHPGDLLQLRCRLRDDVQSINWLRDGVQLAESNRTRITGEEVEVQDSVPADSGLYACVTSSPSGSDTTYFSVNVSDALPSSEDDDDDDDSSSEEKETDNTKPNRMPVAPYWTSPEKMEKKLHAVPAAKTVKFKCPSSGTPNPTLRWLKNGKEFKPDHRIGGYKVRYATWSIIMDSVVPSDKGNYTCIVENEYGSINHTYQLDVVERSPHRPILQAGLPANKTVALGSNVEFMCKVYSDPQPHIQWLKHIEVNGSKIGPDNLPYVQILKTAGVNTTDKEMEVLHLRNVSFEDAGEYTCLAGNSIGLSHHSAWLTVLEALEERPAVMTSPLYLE
T1 sequence (looked up) 2: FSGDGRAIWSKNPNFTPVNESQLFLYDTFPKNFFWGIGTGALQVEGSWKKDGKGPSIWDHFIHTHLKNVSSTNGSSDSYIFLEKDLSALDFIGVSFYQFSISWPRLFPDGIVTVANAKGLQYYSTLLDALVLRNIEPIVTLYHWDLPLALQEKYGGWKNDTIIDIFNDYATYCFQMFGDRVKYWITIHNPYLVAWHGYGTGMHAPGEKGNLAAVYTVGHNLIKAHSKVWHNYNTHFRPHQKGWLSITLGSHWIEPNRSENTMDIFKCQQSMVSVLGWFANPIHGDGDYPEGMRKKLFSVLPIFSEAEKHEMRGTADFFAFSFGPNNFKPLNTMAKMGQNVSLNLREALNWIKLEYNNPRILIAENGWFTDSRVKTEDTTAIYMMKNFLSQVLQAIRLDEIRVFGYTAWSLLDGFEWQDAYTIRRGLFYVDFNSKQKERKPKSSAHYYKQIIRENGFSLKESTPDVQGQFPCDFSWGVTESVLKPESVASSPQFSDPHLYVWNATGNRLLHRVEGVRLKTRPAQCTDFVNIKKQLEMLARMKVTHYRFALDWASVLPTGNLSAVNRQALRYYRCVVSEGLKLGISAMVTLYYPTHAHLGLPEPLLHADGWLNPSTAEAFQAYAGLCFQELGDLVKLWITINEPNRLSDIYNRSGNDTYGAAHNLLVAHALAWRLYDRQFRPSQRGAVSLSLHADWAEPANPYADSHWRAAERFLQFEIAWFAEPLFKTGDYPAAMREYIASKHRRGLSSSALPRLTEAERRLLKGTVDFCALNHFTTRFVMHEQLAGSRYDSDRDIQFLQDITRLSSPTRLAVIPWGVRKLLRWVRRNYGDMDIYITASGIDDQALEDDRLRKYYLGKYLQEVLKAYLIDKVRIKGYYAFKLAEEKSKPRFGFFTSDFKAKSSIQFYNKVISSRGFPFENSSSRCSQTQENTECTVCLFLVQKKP

[2] = molecular target: T2, Soluble human FGFR4/KLB receptor complex (FGFR4 ectodomain-Fc with soluble KLB) (human, UniProt P22455 22-369; Q86Z14 1-996); experiment: as above; settings: both partners purified
T2 construct: human FGFR4 ectodomain fused to Fc, coupled to Protein A acceptor beads; human beta-Klotho (KLB) protein, called human soluble KLB; also called hFGFR4/KLB; source: bought: R&D Systems (both chains)
T2 sequence (looked up) 1: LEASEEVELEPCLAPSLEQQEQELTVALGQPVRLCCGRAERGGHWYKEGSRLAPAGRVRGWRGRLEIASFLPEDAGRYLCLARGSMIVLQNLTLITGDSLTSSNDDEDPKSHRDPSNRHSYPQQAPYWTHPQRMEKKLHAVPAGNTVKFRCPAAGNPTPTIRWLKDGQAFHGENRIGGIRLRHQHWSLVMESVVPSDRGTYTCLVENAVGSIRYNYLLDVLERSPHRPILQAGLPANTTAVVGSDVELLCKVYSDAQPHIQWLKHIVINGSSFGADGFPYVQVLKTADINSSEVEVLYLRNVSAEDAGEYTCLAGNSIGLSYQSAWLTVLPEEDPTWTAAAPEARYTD
T2 sequence (looked up) 2: T1 sequence (looked up) 2

B1: Human FGF21 (1-181) (ligand, UniProt Q9NSA1 29-209, looked up)
chain: HPIPDSSPLLQFGGQVRQRYLYTDDAQQTEAHLEIREDGTVGGAADQSPESLLQLKALKPGVIQILGVKTSRFLCQRPDGALYGSLHFDPEACSFRELLLEDGYNVYQSEAHGLPLHLPGNKSPHRDPAPRGPARFLPLPGLPPALPEPPGILAPQPPDVGSSDPLSMVGPSQGRSPSYAS
notes: also called fibroblast growth factor 21; native FGF21; source: E. coli OrigamiB (DE3), purified (Ni-NTA, SUMO protease digestion, Q-Sepharose)
[1]
  IC50: 123 nM
[2]
  IC50: 1220 nM
